koff data for 13 molecules are collected here from US20210363269A1 (ALX ONCOLOGY, published 2021).

Holding throughout (experiment): SPR, Langmuir fit
Experiment [1] addresses T1, human SIRP-α v1 D1 domain (human, UniProt P78324 31-149).
T1 construct: also called human v1
The method, boiled down: (§1)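 Antibody clones in scFv-Fc format were captured from pre-filtered culture media onto anti-human IgG Fc, amine-coupled (about 4000 RU) on a GLC chip of a ProteOn XPR36 instrument. SIRP analytes were flowed in PBS pH 7.4 with 0.01% Tween-20 at 25° C. Data were double-referenced against interspot and buffer-blank responses. Dissociation rate constants (koff) were derived by fitting a 1:1 Langmuir model.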

Experiment [2] concerns the target T2, mouse 129 SIRP-α D1 domain (mouse (129 strain), UniProt P97797 32-150).
T2 construct: also called m129
T2 chain: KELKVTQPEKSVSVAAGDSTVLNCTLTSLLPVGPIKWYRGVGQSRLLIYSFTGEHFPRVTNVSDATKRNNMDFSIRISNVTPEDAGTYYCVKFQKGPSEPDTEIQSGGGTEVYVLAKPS
The gist of the method: as §1

Experiment [3] addresses T3, human SIRPγ isoform 1 (human, UniProt Q9P1W8 29-147).
T3 construct: also called SIRPg; sirpg
The gist of the method:
as §1

For experiment [4], the target named is T4, human SIRP-α v2 D1 domain (human).
T4 construct: also called human v2
The gist of the method: as §1

In experiment [5] the target is T5, high affinity SIRP-α D1 variant CV1-3.
T5 chain: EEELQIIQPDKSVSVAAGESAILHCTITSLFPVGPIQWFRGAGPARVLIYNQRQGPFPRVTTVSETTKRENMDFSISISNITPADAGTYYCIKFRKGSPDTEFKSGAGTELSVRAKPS
The gist of the method: as §1

In experiment [6] the target is T6, cynomolgus SIRP-α D1 domain (cyno1) (cynomolgus monkey, UniProt Q5TFQ8 30-148 (human entry), limits assumed).
T6 chain: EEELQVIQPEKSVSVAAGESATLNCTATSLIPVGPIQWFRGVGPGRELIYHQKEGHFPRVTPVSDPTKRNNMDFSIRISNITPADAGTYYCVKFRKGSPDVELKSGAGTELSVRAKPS
The method, boiled down: as §1

In experiment [7] the target is T7, NOD mouse SIRP-α D1 domain (mouse (NOD strain)).
T7 chain: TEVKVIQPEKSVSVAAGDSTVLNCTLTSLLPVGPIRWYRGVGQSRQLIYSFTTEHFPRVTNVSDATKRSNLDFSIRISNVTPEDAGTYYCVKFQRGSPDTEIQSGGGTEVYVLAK
The gist of the method:
as §1

In experiment [8] the target is T8, cynomolgus SIRP-α D1 domain (cyno2) (cynomolgus monkey, UniProt Q5TFQ8 30-148 (human entry), limits assumed).
T8 chain: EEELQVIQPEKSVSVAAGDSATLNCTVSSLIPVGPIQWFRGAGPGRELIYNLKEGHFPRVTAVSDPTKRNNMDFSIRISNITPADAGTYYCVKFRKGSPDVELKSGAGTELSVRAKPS
The gist of the method: as §1

Experiment [9] concerns the target T9, human SIRPβ isoform 1 (human, UniProt O00241 30-148).
T9 construct: also called SIRPb; sirpb1
The gist of the method: as §1

Experiment [10] addresses T10, C57BL/6 mouse SIRP-α D1 domain (mouse (C57BL/6 strain), UniProt P97797 32-148).
T10 sequence: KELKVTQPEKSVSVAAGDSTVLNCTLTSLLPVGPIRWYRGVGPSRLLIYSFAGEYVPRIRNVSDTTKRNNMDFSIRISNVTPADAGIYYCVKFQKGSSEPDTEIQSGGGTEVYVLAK
The gist of the method: as §1

T1 sequence (P78324 31-149 limits assumed): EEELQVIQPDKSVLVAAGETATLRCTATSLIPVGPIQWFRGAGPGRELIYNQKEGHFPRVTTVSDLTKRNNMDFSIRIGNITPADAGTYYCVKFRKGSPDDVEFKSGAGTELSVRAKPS
T3 sequence (Q9P1W8 29-147 limits assumed): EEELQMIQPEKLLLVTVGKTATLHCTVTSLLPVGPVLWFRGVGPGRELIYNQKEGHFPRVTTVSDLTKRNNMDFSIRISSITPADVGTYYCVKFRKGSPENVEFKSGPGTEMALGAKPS
T9 sequence (O00241 30-148 limits assumed): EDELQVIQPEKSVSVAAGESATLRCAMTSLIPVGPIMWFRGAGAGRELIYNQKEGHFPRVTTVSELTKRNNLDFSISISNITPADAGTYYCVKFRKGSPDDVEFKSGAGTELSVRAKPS

B1: S26 (scFv, V domains shown)
VH: DVQLVESGGGVVRPGESLRLSCAASGFTFSTYAMSWVRQAPGKGLEWVSGISASGSGTYYGDSVKGRFTMSRDNSKNTLYLQMNSLTAEDTAVYYCARETWNHLFDYWGLGTLVTVSS
VL: ALTQPASVSANLGGTVEITCSGGSSSYYGWYQQKSPGSAPVTVIYSDNQRPSDIPSRFSGSASDSTATLTITGVQVEDEAIYYCGGYDSSTYANTFGAGTTLTVL
notes: also called clone 26
As a reminder, the koff is a measure of how fast the partners let go of each other. Lower therefore signals slow dissociation. Regarding B1, the koff in experiment [1] turned out to be 5.81e-05 s⁻¹; in [2], 0.00108 s⁻¹; in [3] it was 8.35e-05 s⁻¹; in [4] it was 0.000111 s⁻¹; in experiment [5], 4.74e-05 s⁻¹; in experiment [6] it was 0.000967 s⁻¹. Moreover, the koff in experiment [7] amounted to 0.000764 s⁻¹; in experiment [8], 0.000743 s⁻¹; in experiment [9], 0.000129 s⁻¹.

B2: S29 (scFv, V domains shown)
VH: DVQLVESGGGVVRPGESLRLSCAVSGFRFSSYAMSWVRQAPGKGLEWVSGISSDSDAYYVDSVKGRFTISRDNSKNTLYLQVNSLTAEDTAVYYCARETWNHLFDYWGLGTMVTVSS
VL: ALTQPASVSANLGETVKITCSGGDSSSHYYGWFQQKSPGSAPVTLIYSDDERPSDIPSRFSGSASGSTATLTITGVRVEDEAIYFCGAYDGSTYTNTFGAGTTLTVL
notes: also called clone 29
B2: the koff is 0.00186 s⁻¹ in [10]; 9.61e-05 s⁻¹ in experiment [1]; 0.00114 s⁻¹ in experiment [2]; 0.000216 s⁻¹ in [3]; 0.000178 s⁻¹ in experiment [4]; 0.000343 s⁻¹ in [5]. The figures for the off-rate (koff) in [6], in experiment [8] and in [9] were 0.000387 s⁻¹, 0.000369 s⁻¹ and 0.000279 s⁻¹, respectively.

B3: S74 (scFv, V domains shown)
VH: DVQLVESGGGVVRPGESLRLSCAASGFTFSSNAMSWVRQAPGKGLEWLAGISAGDSDTYYPASVKGRFTISRDNPKNTLYLQMNTLTAEDTAVYYCARETWNHLFDYWGLGTLVTVSS
VL: ALTQPASVSANPGETVKIACSGGSYYSYYYGWYQQKSPGSALVTVIYSDDKRPSGIPSRFSGSASGSTATLTITGVRAEDEAVYYCGGYDYSSYTNDFGAGTTLTVL
notes: also called clone 74
Take B3: the off-rate constant (koff) was 0.00137 s⁻¹ in experiment [10]; 0.000161 s⁻¹ in [1]; 0.000412 s⁻¹ in experiment [2]; 0.000225 s⁻¹ in [3]; 0.000278 s⁻¹ in experiment [4]; 0.000166 s⁻¹ in [5]. In addition, the values for the koff in experiment [6], in experiment [8] and in experiment [9] were 0.000337 s⁻¹, 0.00032 s⁻¹ and 0.000266 s⁻¹, respectively.

B4: S136 (scFv, V domains shown)
VH: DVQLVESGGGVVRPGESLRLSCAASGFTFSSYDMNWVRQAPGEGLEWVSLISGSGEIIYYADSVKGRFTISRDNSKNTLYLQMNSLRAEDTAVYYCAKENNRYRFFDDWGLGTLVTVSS
VL: ETVLTQSPGTLTLSPGERATLTCRASQSVYTYLAWYQEKPGQAPRLLIYGASSRATGIPDRFSGSGSGTEFTLTISSLQSEDFAVYYCQQYYDRPPLTFGGGTKVEIK
notes: also called scFv-Fc form of AB136
With B4, the koff in [10] was determined as 0.00478 s⁻¹; in [1], 0.000845 s⁻¹; in [2], 0.000459 s⁻¹; in experiment [4], 0.00161 s⁻¹; in experiment [5] it was 0.00159 s⁻¹; in experiment [7], 0.000386 s⁻¹. Moreover, the koff turned out to be 0.00132 s⁻¹ in experiment [8] and 0.0036 s⁻¹ in [9].

B5: S189 (scFv, V domains shown)
VH: DVQLVESGGGVVRPGESLRLSCAASGFTFSSSDMNWVRQAPGEGLEWVSLISGSGEITYYADSVKGRFTISRDNSKNTLYLQMNSLRAEDTAIYYCAKENNMYRFFDYWGLGTLVTVSS
VL: ETVLTQSPGTLSLSPGERATLSCRASQSVYTYLAWYQQKPGQPPRLLIHAARNRAAGIPDRFSGSGSGTEFTLTISSLQSEDFAVYYCQQYYDRPPLTFGGGTKVEIK
In the case of B5, the koff in [10] was found to be 0.0039 s⁻¹; in experiment [1], 0.00106 s⁻¹; in experiment [2], 0.000837 s⁻¹; in [4], 0.00281 s⁻¹; in [5], 0.00228 s⁻¹; in experiment [6], 0.00331 s⁻¹. Moreover, the figures for the koff in experiment [7], in experiment [8] and in experiment [9] were 0.000504 s⁻¹, 0.00187 s⁻¹ and 0.00278 s⁻¹, respectively.

B6: S180 (scFv, V domains shown)
VH: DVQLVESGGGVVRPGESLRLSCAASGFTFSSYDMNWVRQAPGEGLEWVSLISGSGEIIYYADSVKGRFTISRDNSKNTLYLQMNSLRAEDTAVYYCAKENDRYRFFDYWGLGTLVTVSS
VL: ETVLTQSPGTLTLSPGERATLTCRASQSVYTYLAWYQEKPGQAPRLLIYGASSRATGIPDRFSGSGSGTEFTLTISSLQSEDFAVYYCQQYYDRPPLTFGGGTKVEIK
notes: also called clone 180
Regarding B6, the koff in experiment [10] stood at 0.00466 s⁻¹; in [1], 0.0016 s⁻¹; in [2], 0.000806 s⁻¹; in experiment [4], 0.00227 s⁻¹; in [5] it was 0.00307 s⁻¹; in experiment [6], 0.0025 s⁻¹. Besides, the koff amounted to 0.000576 s⁻¹ in [7], 0.00138 s⁻¹ in experiment [8] and 0.00375 s⁻¹ in [9].

B7: S184 (scFv, V domains shown)
VH: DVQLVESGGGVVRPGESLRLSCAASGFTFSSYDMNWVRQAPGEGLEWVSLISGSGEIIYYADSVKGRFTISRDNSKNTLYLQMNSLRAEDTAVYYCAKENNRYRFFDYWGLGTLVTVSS
VL: ETVLTQSPGTLSLSPGERATLNCRASQSVYTYLAWYQEKPGQAPRLLIYDASSRATGIPDRFSGSGSGTEFTLTISSLESEDFAVYYCQQYYDRPPLTFGGGTKVEIK
For the molecule B7, the off-rate constant (koff) in [10] is 0.00422 s⁻¹; in experiment [2] it was 0.000821 s⁻¹; in experiment [5], 0.00514 s⁻¹; in experiment [6], 0.0039 s⁻¹; in experiment [7] it was 0.000638 s⁻¹; in experiment [8], 0.00221 s⁻¹.

B8: S175 (scFv, V domains shown)
VH: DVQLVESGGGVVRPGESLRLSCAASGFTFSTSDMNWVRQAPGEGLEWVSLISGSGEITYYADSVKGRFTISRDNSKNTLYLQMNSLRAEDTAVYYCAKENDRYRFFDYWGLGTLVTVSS
VL: ETVLTQSPGILSLSPGERATLTCRASQSVYTYLAWYQEKPGQAPRLLIYGASSRAAGIPDRFSGSGSGTEFTLTISSLQSEDFAVYYCQQYYDRPPLTFGGGTKVEIK
On to B8, for which the koff in experiment [10] was 0.0032 s⁻¹; in [1], 0.000839 s⁻¹; in [2] it was 0.000605 s⁻¹; in experiment [4], 0.00183 s⁻¹; in [5], 0.00165 s⁻¹; in [6], 0.00177 s⁻¹. The koff came to 0.000417 s⁻¹ in experiment [7], 0.00107 s⁻¹ in experiment [8] and 0.00299 s⁻¹ in experiment [9].

B9: S190 (scFv, V domains shown)
VH: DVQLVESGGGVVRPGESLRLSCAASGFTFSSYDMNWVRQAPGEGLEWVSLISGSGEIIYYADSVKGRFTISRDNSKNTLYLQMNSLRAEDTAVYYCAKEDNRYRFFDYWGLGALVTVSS
VL: ETVLTQSPGTLTLSPGERTTLTCRASQSVYTYLAWYQEKPGQAPRLLIYGASSRATGIPDRFSGSGSGTEFTLTISSLQSEDFAVYYCQQYYDRPPLTFGGGTKVEIK
notes: also called clone 190
Regarding B9, the koff in experiment [1] is 0.00156 s⁻¹; in [2], 0.000773 s⁻¹; in experiment [4], 0.00199 s⁻¹; in [5], 0.00308 s⁻¹; in [6], 0.00217 s⁻¹; in experiment [7] it was 0.000563 s⁻¹. Further, the figures for the off-rate constant (koff) in experiment [8] and in [9] were 0.00124 s⁻¹ and 0.00256 s⁻¹, respectively.

B10: S178 (scFv, V domains shown)
VH: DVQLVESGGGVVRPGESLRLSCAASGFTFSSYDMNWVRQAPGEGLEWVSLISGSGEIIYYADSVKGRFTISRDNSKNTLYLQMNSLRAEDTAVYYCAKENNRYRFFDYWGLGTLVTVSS
VL: ETVLTQSPGTLTLSPGERATLSCRASQSVYTYLAWYQEKPGQAPRLLIYGASSRATGVPDRFSGSGSGTEFTLTISSLQSEDFAVYYCQQYYDRPPLTFGGGTKVEIK
In the case of B10, the dissociation rate constant (koff) stood at 0.00223 s⁻¹ in [1]; 0.00112 s⁻¹ in experiment [2]; 0.00317 s⁻¹ in [4]; 0.00426 s⁻¹ in experiment [5]; 0.00344 s⁻¹ in experiment [6]; 0.000762 s⁻¹ in experiment [7]. For the same molecule, the off-rate (koff) was 0.00177 s⁻¹ in experiment [8] and 0.00473 s⁻¹ in experiment [9].

B11: S185 (scFv, V domains shown)
VH: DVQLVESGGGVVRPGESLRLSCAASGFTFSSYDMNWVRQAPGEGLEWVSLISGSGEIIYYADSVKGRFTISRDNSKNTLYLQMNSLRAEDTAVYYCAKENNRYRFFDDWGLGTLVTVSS
VL: ETVLTQSPGTLSLSPGERATLNCRASQSVYSYLAWYQERPGQAPRLLIYGASTRATGIPDRFSGSGSGTEFTLTISSLESDDFAVYYCQQYYDRPPLTFGGGTKVEIK
For the molecule B11, the koff in [10] is 0.00514 s⁻¹; in [1], 0.00122 s⁻¹; in experiment [2], 0.000717 s⁻¹; in experiment [4] it was 0.00205 s⁻¹; in experiment [5], 0.00239 s⁻¹; in experiment [6] it was 0.00178 s⁻¹. The off-rate (koff) in experiment [7] amounted to 0.000573 s⁻¹; in experiment [8], 0.00103 s⁻¹; in experiment [9], 0.00385 s⁻¹.

B12: S193 (scFv, V domains shown)
VH: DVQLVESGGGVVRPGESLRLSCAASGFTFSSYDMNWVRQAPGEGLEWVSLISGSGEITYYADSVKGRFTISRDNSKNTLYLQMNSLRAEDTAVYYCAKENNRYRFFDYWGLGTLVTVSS
VL: ETVLTQSPGTLSLSPGERATLSCRASQSVYTYLAWYQEKPGQAPRLLIYAASTRATGIPDRFSGSGSGTEFTLTISSLQSEDFAVYYCQQYYDRPPLTFGGGTKVEIK
notes: scFv-Fc format (VL-linker-VH on human IgG1 Fc)
For B12, the koff in experiment [10] came out at 0.00389 s⁻¹; in [2], 0.00209 s⁻¹; in [7], 0.00157 s⁻¹; in experiment [8], 0.00428 s⁻¹.

B13: S177 (scFv, V domains shown)
VH: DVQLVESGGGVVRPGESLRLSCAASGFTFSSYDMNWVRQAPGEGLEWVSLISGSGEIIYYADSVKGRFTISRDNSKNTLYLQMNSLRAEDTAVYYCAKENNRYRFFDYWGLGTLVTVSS
VL: KTVLTQSPGTLSLSPGERATLTCRADQSVYTYLAWYQERPGQAPRLLIYDASSRATGIPDRFSGSGSGTEFTLTISSLQSEDFAVYYCQQYYDRPPLTFGGGTKVEIK
Regarding B13, the koff in experiment [2] was found to be 0.00104 s⁻¹; in [6], 0.00447 s⁻¹; in experiment [7], 0.000736 s⁻¹; in [8], 0.00269 s⁻¹.
